Holding throughout (assay): cell-based or functional assay
For assay [1], the target named is human glucagon receptor (human, UniProt P47871 26-477).
The target in assay [2] is human glucagon receptor (human) (UniProt P47871).
In assay [3] the target is human GLP-1 receptor (human) (UniProt P43220).

Positions of bridges follow the written chain, without caps; N, C: chain ends. Non-standard residues stand in square brackets, D forms with d. No end group written: not given here. *: point of attachment. Acetyl(2-(4-imidazolyl)) = O=C(Cc1c[nH]cn1)*; Aib = CC(C)(N)C(=O)O A value given as a limit tells only on which side of the number the result lay.

human GLP-1 receptor (human), sequence (P43220 24-463): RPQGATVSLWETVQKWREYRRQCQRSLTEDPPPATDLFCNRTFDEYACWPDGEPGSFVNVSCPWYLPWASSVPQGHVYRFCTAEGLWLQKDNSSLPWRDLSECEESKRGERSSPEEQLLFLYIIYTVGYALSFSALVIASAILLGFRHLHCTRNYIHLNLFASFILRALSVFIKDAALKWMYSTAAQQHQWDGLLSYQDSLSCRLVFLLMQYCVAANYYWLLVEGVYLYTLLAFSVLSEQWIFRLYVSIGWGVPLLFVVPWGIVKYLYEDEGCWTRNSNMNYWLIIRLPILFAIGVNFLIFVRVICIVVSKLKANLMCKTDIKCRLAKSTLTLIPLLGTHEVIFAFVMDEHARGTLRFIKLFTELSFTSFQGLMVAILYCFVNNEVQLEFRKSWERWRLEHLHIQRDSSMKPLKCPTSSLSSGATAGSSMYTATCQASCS
human glucagon receptor (human), sequence (P47871 26-477): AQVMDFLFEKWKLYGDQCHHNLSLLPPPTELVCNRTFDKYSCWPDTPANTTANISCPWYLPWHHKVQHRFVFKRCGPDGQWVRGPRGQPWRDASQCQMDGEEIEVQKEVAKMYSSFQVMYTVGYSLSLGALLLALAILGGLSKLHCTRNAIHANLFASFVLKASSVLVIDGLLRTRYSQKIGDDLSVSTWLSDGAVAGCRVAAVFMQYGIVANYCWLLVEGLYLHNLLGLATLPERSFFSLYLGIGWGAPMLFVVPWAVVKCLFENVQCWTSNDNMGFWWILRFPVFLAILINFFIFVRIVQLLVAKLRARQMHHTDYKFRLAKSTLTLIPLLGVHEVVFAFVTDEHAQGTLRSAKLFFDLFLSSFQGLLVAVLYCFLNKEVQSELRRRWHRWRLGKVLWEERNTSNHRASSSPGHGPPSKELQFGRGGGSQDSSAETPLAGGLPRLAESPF
human glucagon receptor, sequence (P47871 26-477): as above

B1: oxyntomodulin analog (SEQ ID NO: 25) (peptide)
peptide: H[Aib]QGTFTSDYSKYLDEKRAKEFVQWLMNTC
modifications: bridge 16-20
With B1, the “EC50 (nM), cAMP, CHO/GCGR” value in assay [1] came out at 1.3 nM.

B2: oxyntomodulin analog (SEQ ID NO: 24) (peptide)
peptide: H[Aib]QGTFTSDYSKYLDEKRAKEFVQWLMNTC
With B2, the “EC50 (nM), cAMP, CHO/GCGR” value in assay [1] was 6.95 nM.

B3: oxyntomodulin analog (SEQ ID NO: 8) (peptide)
peptide: [Acetyl(2-(4-imidazolyl))]SQGTFTSDLSRQLEEEAVRLFIEWLMNK
In assay [2], B3 registered an EC50 (nM), cAMP, CHO/GCGR of over 1000 nM. For the same molecule, the EC50 (nM), cAMP, CHO/GLP-1R in assay [3] amounted to 420 nM.

B4: oxyntomodulin analog (SEQ ID NO: 34) (peptide)
peptide: Y[Aib]QGTFTSDYSKYLDEKRAKEFVQWLMNTC
modifications: bridge 16-20
With B4, the “EC50 (nM), cAMP, CHO/GCGR” value in assay [1] is 1.04 nM.

B5: oxyntomodulin analog (SEQ ID NO: 3) (peptide)
peptide: [Acetyl(2-(4-imidazolyl))]SQGTFTSDYSKYLDERRAQDFVAWLKNTGPSSGAPPPS
Consider B5, for which the EC50 (nM), cAMP, CHO/GCGR in assay [2] turned out to be 638 nM. In assay [3], this molecule had an EC50 (nM), cAMP, CHO/GLP-1R of over 1000 nM.

B6: oxyntomodulin analog (SEQ ID NO: 18) (peptide)
peptide: [Acetyl(2-(4-imidazolyl))]SQGTFTSDYSRYLDEEAVRLFIEWIRNGGPSSGAPPPSK
B6 registered an EC50 (nM), cAMP, CHO/GCGR in assay [2] of over 1000 nM. In assay [3], this molecule yielded an EC50 (nM), cAMP, CHO/GLP-1R of 96.3 nM.

The record behind these values is US20180237490A1 (HANMI PHARM, published 2018).
